We go through three molecules from patent US20180244777A1 (NUMAB THERAPEUTICS, published 2018).

Residue numbers refer to the chain shown, from its start. Where two headings read alike, the source gives them in different places.

Test [1] concerns the target T1, linear 15mer peptides derived from cynomolgus CD3ε residues 5-20 (Set 4) (cynomolgus).
T1 construct: also called peptides spanning residues 5-20
T1 peptide: EEMGSITQTPYQVSIS
Description: peptide array ELISA, Set 4. As to the method:
(§1) The binding of the antibodies to each of the synthesized peptides was tested by ELISA. The peptide arrays were incubated with primary antibody solution (overnight at 4° C.). After washing, the peptide arrays were incubated with a 1/1000 dilution of an antibody peroxidase conjugate (SBA, cat.nr.2010-05) for one hour at 25° C. After washing, the peroxidase substrate 2,2′-azino-di-3-ethylbenzthiazoline sulfonate (ABTS) and 2 μl/ml of 3% H₂O₂ were added. After one hour, the color development was measured. The color development was quantified with a charge coupled device (CCD)—camera and an image processing system.
In general terms: In an ELISA, binding on a coated surface is turned into a signal by an enzyme label.

Test [2] concerns the target T2, human CD3ε expressed on the cell surface of T cells (Jurkat cells; human CD8+ T cells) (human, UniProt P07766 23-207).
T2 construct: whole, on cells; also called native CD3ε embedded in the TCR complex on Jurkat cells
Description: cell-based ELISA on Jurkat cells, CD3ε-deficient Jurkat subtracted. The procedure:
(§2) Jurkat cells (clone E6-1), a human T cell line, were seeded at 300,000 cells/well in round bottom 96-well plates in 100 μl phosphate-buffered saline (PBS) containing 10% FBS. Five-fold serial dilutions of anti-CD3 rabbit monoclonal antibodies ranging from 90 nM to 0.0058 nM were added to the plates in 100 μl PBS containing 10% FBS. […] This secondary antibody was linked to the enzyme horseradish peroxidase (HRP). HRP activity was measured by addition of TMB substrate (3,3′,5,5′-tetramethylbenzidine, KPL, Cat. No. 53-00-00), which in a colorimetric reaction is processed by the HRP. The color intensity of the processed substrate is directly proportional to the amount of anti-CD3 antibody bound to Jurkat cells. To quantify color intensity, light absorbance (optical density) at the respective wave length was measured using a microtiter plate reader (Infinity reader M200 Pro, Tecan).
(§3) To correct for unspecific binding of the antibodies to unknown components presented on the cell surface of Jurkat cells, a CD3ε deficient derivative of the Jurkat T cell line (J.RT3-T3.5) was used. Binding of the monoclonal antibodies to this cell line was measured as described above for the Jurkat cells. For quantification of specific binding to Jurkat cells, the optical density for binding to the negative control was subtracted from the optical density for binding to Jurkat cells. Data were analyzed using a four-parameter logistic curve fit using the Softmax Data Analysis Software (Molecular Devices), and the molar concentration of anti-CD3 antibody required to reach 50% binding (EC₅₀, mid-OD of the standard curve) was derived from dose response curves.

The target in test [3] is T3, cynomolgus monkey heterodimeric single-chain CD3εγ extracellular domain (cynomolgus monkey, UniProt Q95LI5 22-117; Q95LI7 23-113). Description: SPR, rabbit IgG captured, cyno single-chain CD3εγ ECD injected. (In general: SPR reads the build-up and loss of mass on a sensor chip optically.)
The target of test [4] is T4, cynomolgus monkey CD3ε expressed on the surface of HSC-F T cells (cynomolgus monkey, UniProt Q95LI5 22-198).
T4 construct: whole, on cells; also called cyno HSC-F T cells
Description: cell-based ELISA on cyno HSC-F T cells.

The target in test [5] is T2, human CD3ε expressed on the cell …. Description: cell-based ELISA on Jurkat cells. The procedure:
as §2, §3

Test [6] deals with T5, human heterodimeric single-chain CD3εγ extracellular domain (human, UniProt P07766 23-126; P09693 23-116).
T5 construct: extracellular domain; Produced in-house; also called scCD3γε; human CD3ge
Description: SPR, rabbit IgG captured, human single-chain CD3εγ ECD injected. The procedure: (§4) Binding affinities of monoclonal rabbit anti-CD3 antibodies were measured by surface plasmon resonance (SPR) using a MASS-1 SPR instrument (Sierra Sensors). […] Rabbit monoclonal antibodies were captured by the immobilized anti-rabbit IgG antibody. Two-fold serial dilutions of human heterodimeric single-chain CD3εγ extracellular domain (produced in-house) ranging from 90 to 2.81 nM were injected into the flow cells for 3 min and dissociation of the protein from the IgG captured on the sensor chip was allowed to proceed for 5 min. After each injection cycle, surfaces were regenerated with two injections of 10 mM glycine-HCl. The apparent dissociation (kd) and association (ka) rate constants and the apparent dissociation equilibrium constant (KD) were calculated with the MASS-1 analysis software (Analyzer, Sierra Sensors) using one-to-one Langmuir binding model.

The target in test [7] is T2, human CD3ε expressed on the cell …. Description: cell-based or functional assay.
Test [8] concerns the target T5, human heterodimeric single-chain CD3εγ …. Description: SPR, rabbit IgG captured, human single-chain CD3εγ ECD injected. The procedure: as §4
This is another data set of the same source.

Test [9] deals with T6, linear 15mer peptides derived from human CD3ε residues 5-20 (Set 3) (human).
T6 construct: also called peptides spanning residues 5-20
T6 peptide: EEMGGITQTPYKVSIS
Description: peptide array ELISA, Set 3. The procedure: as §1

Test [10] has as its target T3, cynomolgus monkey heterodimeric …. Description: SPR, rabbit IgG captured, cyno single-chain CD3εγ ECD injected. The source holds these as a separate data set.
For test [11] the target is unchanged. Description: SPR; ratio of the KDs for cyno and human single-chain CD3εγ.
For test [12], the target named is T7, linear 15mer peptide derived from cynomolgus CD3ε residues 2-16 (wild type of the substitution library, Set 2) (cynomolgus).
T7 construct: Probed as a saturation mutagenesis library on a peptide array
T7 peptide: DGNEEMGSITQTPYQ
Description: 15mer peptide array ELISA.

For test [13], the target named is T8, linear 15mer peptide derived from human CD3ε residues 2-16 (wild type of the substitution library, Set 1) (human).
T8 construct: Probed as a saturation mutagenesis library on a peptide array
T8 peptide: DGNEEMGGITQTPYK
Description: 15mer peptide array ELISA.

The target of test [14] is T2, human CD3ε expressed on the cell …. Description: cell-based or functional assay. This is another data set of the same source.

T3 sequence (Q95LI7 other isoform, or with tags, fused parts or gaps): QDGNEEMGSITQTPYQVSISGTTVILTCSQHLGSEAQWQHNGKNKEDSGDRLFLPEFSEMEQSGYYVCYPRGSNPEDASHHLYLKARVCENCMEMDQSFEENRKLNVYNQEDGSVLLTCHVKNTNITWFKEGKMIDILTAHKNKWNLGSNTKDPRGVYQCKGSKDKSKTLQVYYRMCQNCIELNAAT
T4 sequence (Q95LI5 22-198): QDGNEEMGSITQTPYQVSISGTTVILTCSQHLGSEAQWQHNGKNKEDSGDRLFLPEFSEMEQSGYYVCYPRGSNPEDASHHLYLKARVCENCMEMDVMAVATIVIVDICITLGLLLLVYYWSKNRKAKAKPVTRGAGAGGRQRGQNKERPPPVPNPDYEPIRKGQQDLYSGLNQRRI

B1: clone-06 (antibody, V domains shown)
VH: QSVEESGGRLVTPGTPLTLTCTVSGFPLSSYAMIWVRQAPGKGLEWIGMILRAGNIYYASWVKGRVTISKTSTTVDLKITSPTTEDTATYFCARRHYNREGYPIGIGDLWGPGTLVTVSS
VL: AQVLTQTPSSVSAAVGGTVTISCQSSESVYNNKRLSWFQQKPGQPPKQLIYTASSLASGVPSRFKGSGSGTQFTLTISDLECDDAATYYCQGEFTCSNADCFTFGGGTEVVVKG
notes: Recombinant rabbit IgG; also called Clone 6
Take B1: the binding result in test [1] is “no binding”; in test [9], “no binding”; in test [12], “binds”; in test [13], “binds”. For the same molecule, the figures for the EC50 in test [2], in [4] and in test [5] were 0.67 nM, 1.6 nM and 0.67 nM, respectively. Besides, the dissociation constant (Kd) (as a rule, a measure of binding affinity in units of concentration) in test [3] amounted to 8.95 nM; in test [6], 2.23 nM; in test [8], 2.23 nM; in test [10], 8.95 nM. Also, the koff (commonly the rate constant with which the complex falls apart) in test [3] stood at 0.00397 s⁻¹; in test [8], 0.00138 s⁻¹. In addition, the kon (commonly the rate constant with which the complex forms) in test [3] is 444000 M⁻¹ s⁻¹; in test [8], 618000 M⁻¹ s⁻¹. Besides, the “Fold increase in CD69 expression [MFI normalized to neg. ctrl.], 1.25 µg/ml anti-CD3 IgG” value in test [7] is 2.7 fold. In [7], the “Fold increase in CD69 expression [MFI normalized to neg. ctrl.], 5 µg/ml anti-CD3 IgG” value amounted to 5.1 fold. Further, the “Fold increase in CD69 expression [MFI normalized to neg. ctrl.], 20 µg/ml anti-CD3 IgG” value in test [7] worked out at 5.3 fold. Moreover, the “KD (human)/KD (cyno)” value in test [11] was 4.

B2: clone-03 (antibody, V domains shown)
VH: QSLEESGGRLVTPGTPLTLTCTVSGFPLNRYAMLWVRQAPGKGLEWIGLITRADKKYYASWAKGRFTISKTSTTVDLEITGPTTEDTATYFCARRHYNTDGYPIAIGDLWGPGTLVTVSS
VL: B1 VL with S26N, S28N, V29I, N31S, K33N, K47N, T52S, T95N, S97N, N98S
notes: Recombinant rabbit IgG; also called Clone 3
B2: the binding result in test [1] is “no binding”; in test [9] it was “no binding”; in test [12], “binds”; in [13], “binds”. The results for the EC50 in [2], in test [4] and in [5] were 1.45 nM, 23.9 nM and 1.45 nM, respectively. Moreover, the Kd in [3] was 11.5 nM; in test [6], 0.905 nM; in [8] it was 0.905 nM; in test [10] it was 11.5 nM. For the same molecule, the koff in test [3] was 0.00403 s⁻¹; in [8], 0.000498 s⁻¹. The figures for the association rate constant (kon) in test [3] and in [8] were 350000 M⁻¹ s⁻¹ and 551000 M⁻¹ s⁻¹, respectively. For the same molecule, the “Fold increase in CD69 expression [MFI normalized to neg. ctrl.], 1.25 µg/ml anti-CD3 IgG” value in test [7] turned out to be 2.6 fold. Moreover, the “Fold increase in CD69 expression [MFI normalized to neg. ctrl.], 5 µg/ml anti-CD3 IgG” value in [7] turned out to be 4.6 fold. Also, in test [7], the “Fold increase in CD69 expression [MFI normalized to neg. ctrl.], 20 µg/ml anti-CD3 IgG” value worked out at 6.6 fold. Besides, the “KD (human)/KD (cyno)” value in [11] is 13.

B3: anti-IL5R×CD3ε scDb containing Numab's anti-CD3 domain (humanized clone 6), Example 9 (bispecific antibody)
chain: DIQMTQSPSSLSASVGDRVTITCQASQNIYSNLAWYQQKPGKAPKLLIYRASTLASGVPSRFSGSGSGTDFTLTISSLQPEDFATYYCQSNYGINYYGAAFGQGTKLTVLGGGGGSEVQLVESGGGLVQPGGSLRLSCAASGFPLSSYAMIWVRQAPGKGLEWIGMILRAGNIYYASWVKGRFTISRDNSKNTVYLQMNSLRAEDTAVYYCARRHYNREGYPIGIGDLWGQGTLVTVSSGGGGSGGGGSGGGGSGGGGSDIQMTQSPSSLSASVGDRVTITCQSSESVYNNKRLSWYQQKPGKAPKLLIYTASSLASGVPSRFSGSGSGTDFTLTISSLQPEDFATYYCQGEFTCSNADCFTFGQGTKLTVLGGGGGSEVQLVESGGGLVQPGGSLRLSCAASGFSLSSYDMTWVRQAPGKGLEWIGIIYVSGSAYYASWAKGRFTISRDNSKNTVYLQMNSLRAEDTAVYYCARINYGLDLWGQGTLVTVSS
In the case of B3, the “EC50 in the dose-response curve of specific lysis of CHO-IL5R target cells at 64 hours” value in test [14] was 0.31 nM.
